Data on 1 substance can be found in patent publication US20110165624A1.

This assay concerns the target native Ocr protein (bacteriophage T7 gene 0.3 product) as produced from pMCSG7 (bacteriophage T7). Kind of assay: size exclusion chromatography, Superdex 75; predicted monomer 16.6 kDa, dimer 33.3 kDa.

Regarding “native Ocr protein (bacteriophage T7 gene 0.3 product) as produced from pMCSG7”, the calculated molecular weight on size exclusion column is 35 kDa.
